From paper PMC5366330, “The Activity of a Hexameric M17 Metallo-Aminopeptidase Is Associated With Survival of Mycobacterium tuberculosis” (Frontiers in Microbiology, 2017)

Experiments:
[1] = molecular target: T1, MtLAP (leucine aminopeptidase of M. tuberculosis, Rv2213) (Mycobacterium tuberculosis, UniProt P9WHT3); assay: biochemical
T1 construct: gene pepA

[2] = system: CSCC[C@H](N)C(=O)Nc1ccc2c(C)cc(=O)oc2c1; assay: purified protein; conditions: divalent metal (Ni2+, […] NiSO4 in the assay)
[3] = system: Cc1cc(=O)oc2cc(NC(=O)[C@@H](N)CC(C)C)ccc12; assay: purified protein; conditions: divalent metal (Ni2+, […] NiSO4 in the assay)
[4] = system: Cc1cc(=O)oc2cc(NC(=O)[C@@H]3CCCN3)ccc12; assay: purified protein; conditions: divalent metal (Ni2+, […] NiSO4 in the assay)
AUC + SEC = molecular target: the molecule itself; assay: AUC + SEC

CC(C)C[C@H](NC(=O)[C@@H](O)[C@H](N)Cc1ccccc1)C(=O)O [bestatin]
IC50 [1]: 53.8 nM

MtLAP (leucine aminopeptidase of M. tuberculosis, Rv2213) (Mycobacterium tuberculosis H37Rv)
Km [2]: 61.8 ± 4.4 µM | Km [3]: 69.4 ± 3.6 µM | Km [4]: 344.8 ± 49.2 µM

B1: leucine aminopeptidase of M. tuberculosis (MtLAP) (enzyme)
chain: MTTEPGYLSPSVAVATSMPKRGVGAAVLIVPVVSTGEEDRPGAVVASAEPFLRADTVAEIEAGLRALDATGASDQVHRLAVPSLPVGSVLTVGLGKPRREWPADTIRCAAGVAARALNSSEAVITTLAELPGDGICSATVEGLILGSYRFSAFRSDKTAPKDAGLRKITVLCCAKDAKKRALHGAAVATAVATARDLVNTPPSHLFPAEFAKRAKTLSESVGLDVEVIDEKALKKAGYGGVIGVGQGSSRPPRLVRLIHRGSRLAKNPQKAKKVALVGKGITFDTGGISIKPAASMHHMTSDMGGAAAVIATVTLAARLRLPIDVIATVPMAENMPSATAQRPGDVLTQYGGTTVEVLNTDAEGRLILADAIVRACEDKPDYLIETSTLTGAQTVALGTRIPGVMGSDEFRDRVAAISQRVGENGWPMPLPDDLKDDLKSTVADLANVSGQRFAGMLVAGVFLREFVAESVDWAHIDVAGPAYNTGSAWGYTPKGATGVPTRTMFAVLEDIAKNG
notes: also called M. tuberculosis LAP; Rv2213
stoichiometry N (AUC + SEC): 6
